{"source": "paper doi:10.1101/2022.07.11.499521", "biological_target": "Vairimorpha necatrix 20S proteasome core particle (Vairimorpha necatrix (endogenous in spores))", "test": "cryo-EM structure", "data": [{"substance": "Vairimorpha necatrix 19S regulatory particle (complex)", "values": [{"measurement": "percent of proteasome particles capped by RP", "value": 12, "unit": "%"}]}]}
